This is an account of results in patent US12194057B2, “NXTAR-derived oligonucleotides and uses thereof” (Washington University, priority 2020, dated 2025).

Data set [1] deals with T1, purified EZH2 (Homo sapiens, UniProt Q15910).
T1 construct: made in house
The data set is described as follows: EZH2 pull-down assay with purified 6xHis-tagged EZH2. The data set is classed as binding. To be noted: immobilized on streptavidin beads. Here is the method:
1 mg of lysate prepared from HEK293 cells transfected with 6λHis-tagged-EZH2 plasmid was incubated with Ni-NTA agarose beads (Qiagene) overnight at 4° C. Beads were washed three times using wash buffer (20 mM Tris/HCl, 200 mM NaCl, 5 mM imidazole; pH 7.5) and purified EZH2 was eluted using elution buffer (20 mM Tris/HCl, 200 mM NaCl, 200 mM imidazole; pH 7.5).
LncRNA-Protein binding study was performed as described earlier (see e.g., Zhao, Wang, and Hu (2021) Methods Mol Bio). Briefly, 10 pmol Biotinylated NXTAR-N5 oligo or Biotinylated Globin oligos were diluted in 40 ul RNA structure buffer, heated at 90° C. for 2 min, immediately transferred onto ice for 2 min and then kept at RT for further 20 mins. 10 uM of purified EZH2 protein was added to these biotinylated oligos with 500 ul of NETN buffer and the tubes were placed at 4° C. for 2 hrs. Post washing with cold NETN buffer, streptavidin magnetic beads (60 ul) were added into prepared oligo-protein mix and incubated at 4° C. overnight. Beads were washed 3 times with NETN buffer, followed by western blot analysis. […]

Data set [2] relates to AR-V7. The data set is described as follows: qRT-PCR of AR-V7 expression in prostate cancer cells. It is filed as cell-based, human. Particulars: 22Rv1 cells, reintroduction of NXTAR. The procedure: (§1) NXTAR-N5 oligonucleotide was synthesized by IDT, and the oligonucleotide sequence is provided in TABLE 1 and FIG. 7C (* represents phosphorothioate bond modifications to avoid degradation by exonucleases). Equal numbers of VCaP and 22Rv1 cells were transfected with NXTAR-N5 or globin-derived oligonucleotide using X-tremeGENE360 (Sigma-Aldrich, Cat #08724121001), and the number of live cells was counted 96 h post-transfection using trypan blue exclusion method (Sigma, Cat #T8154). RNA was prepared from these cells, and qRT-PCR [SYBR PremixEx Taq II (Tli RNase H Plus)ROX, Clontech Takara, Cat #RR82LR] for AR and AR-V7 was performed as described earlier (see e.g., Mahajan et al. (2017) Cancer Cell).
Cells were transfected, infected or treated [(R)-9b; EPZ6438, TargetMol, Cat #T1788] accordingly. RNA was used for cDNA preparation using High-Capacity cDNA Reverse Transcription Kit (Thermo Scientific Cat #4368814). Resulting cDNA was then analyzed by qPCR using an Applied Biosystems 7900 Real-Time PCR System (Thermo Scientific) and SYBR Green PCR Master Mix [SYBR PremixEx Taq II (Tli RNase H Plus) ROX, Clontech Takara, Cat #RR82LR] according to the manufacturers' instructions. Dissociation curves were generated for each plate to verify the integrity of the primers. The relative expression of RNAs was calculated using the comparative Ct or standard curve method. […]
(In general: Real-time PCR tracks product formation cycle by cycle.)

Data set [3] relates to AR. The data set can be described thus: Immunoblotting of AR protein in prostate cancer cells. It is filed as cell-based, human. The procedure: Cells were harvested, lysed by sonication in receptor lysis buffer (see e.g., Mahajan et al. (2010) PLoS One) and 20-50 μg of protein lysates were fractionated by SDS-PAGE, and transferred onto a PVDF membrane (Immobilon, Cat #IPVH00010). After blocking in 5% nonfat dry milk (RPI, Cat #M17200) (or 3% BSA, Goldbio, Cat #A-420-500), membranes were incubated with the following monoclonal antibodies: AR (SCBT, Cat #sc-7305; RRID:AB 626671), pY276-AR (29), ACK1 (SCBT, sc-28336; RRID:AB 626629), pACK1 (Upstate, 09-142; RRID:AB 612088), EZH2, and Actin. The signals were visualized by using the enhanced chemiluminescence (ECL; Pierce, 32106) system.
(In general: A western blot detects proteins with antibodies after separation by electrophoresis.)

The test system of data set [4] is AR. The data set can be described thus: qRT-PCR of AR and AR target gene expression in prostate cancer cells. The data set is classed as cell-based, human. Here is the method:
as §1
Cells were transfected, infected or treated [(R)-9b; EPZ6438, TargetMol, Cat #T1788] accordingly. RNA was used for cDNA preparation using High-Capacity cDNA Reverse Transcription Kit (Thermo Scientific Cat #4368814). Resulting cDNA was then analyzed by qPCR using an Applied Biosystems 7900 Real-Time PCR System (Thermo Scientific) and SYBR Green PCR Master Mix [SYBR PremixEx Taq II (Tli RNase H Plus) ROX, Clontech Takara, Cat #RR82LR] according to the manufacturers' instructions. Dissociation curves were generated for each plate to verify the integrity of the primers. The relative expression of RNAs was calculated using the comparative Ct or standard curve method. 18S rRNA or actin were used as internal controls.

Data set [5] deals with T2, EZH2 (Homo sapiens, UniProt Q15910).
T2 construct: endogenous in cells; host or cells: VCaP cells (some retrovirally infected to over-express NXTAR lncRNA)
The data set can be described thus: Pull-down from VCaP cell lysates with biotinylated oligos, immunoblotting for EZH2. It is filed as binding. Particulars: VCaP cells with retroviral expression of NXTAR. Here is the method:
The biotinylated oligonucleotides were incubated with lysates (2 h), and the lysates were incubated with streptavidin magnetic beads overnight. Beads attached to RNAs were divided equally and processed for either RNA isolation or western blotting. For RNA isolation, beads were washed three times and then separated using proteinase K treatment. RNA was then isolated and purified, and DNA was digested in the process. The real-time quantitative RT-PCR was performed on isolated RNA to check the efficiency of pull-down of NXTAR RNA. The remaining beads were heated at 80° C. for 5 min in loading buffer, followed by western blotting. The blots were probed with EZH2 (CST, 5246S; RRID:AB_10694683) antibody and Actin (SCBT, sc-47778; RRID:AB_2714189) was used as the loading control.
Biotin-labeled NXTAR-N5 (complementary to the AR promoter) and globin oligos were synthesized (IDT) (see e.g., TABLE 1). ChIRP was performed using lysate from formaldehyde-fixed VCaP cells and oligos that were immobilized to streptavidin beads, as described earlier (see e.g., Chu and Chang (2016) Methods Mol Bio). The amount of the chromatin DNA was determined by real-time PCR. For detection of NXTAR-N5/EZH2 binding, biotin-labeled NXTAR-N5 oligo and control globin oligo were incubated with VCaP cell lysates and were subjected to chromatin pull-down, followed by immunoblotting with EZH2 antibodies.

The mark [6] stands for this setting: 22Rv1 and VCaP cells infected with retroviral NXTAR construct.

T2 sequence (Q15910 whole entry): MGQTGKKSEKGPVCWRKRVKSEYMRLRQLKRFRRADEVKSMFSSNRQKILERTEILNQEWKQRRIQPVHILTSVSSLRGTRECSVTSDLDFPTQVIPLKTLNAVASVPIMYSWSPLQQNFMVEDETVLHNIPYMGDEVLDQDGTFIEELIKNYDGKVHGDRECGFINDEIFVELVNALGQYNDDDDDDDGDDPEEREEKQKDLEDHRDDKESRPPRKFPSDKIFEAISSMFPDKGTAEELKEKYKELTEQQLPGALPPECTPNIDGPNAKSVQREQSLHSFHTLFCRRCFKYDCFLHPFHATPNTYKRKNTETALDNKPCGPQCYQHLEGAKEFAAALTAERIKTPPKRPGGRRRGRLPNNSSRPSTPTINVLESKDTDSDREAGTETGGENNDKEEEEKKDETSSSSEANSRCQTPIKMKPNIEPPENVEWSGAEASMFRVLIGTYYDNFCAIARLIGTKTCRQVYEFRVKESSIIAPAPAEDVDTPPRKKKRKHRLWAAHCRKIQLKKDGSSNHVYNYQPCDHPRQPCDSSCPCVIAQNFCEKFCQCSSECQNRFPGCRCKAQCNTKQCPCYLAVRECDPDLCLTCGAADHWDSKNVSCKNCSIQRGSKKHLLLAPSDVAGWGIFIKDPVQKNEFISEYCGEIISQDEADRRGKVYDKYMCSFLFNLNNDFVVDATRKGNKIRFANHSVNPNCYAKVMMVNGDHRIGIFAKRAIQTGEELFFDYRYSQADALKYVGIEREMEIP
T2 sequence (O75530 whole entry partner): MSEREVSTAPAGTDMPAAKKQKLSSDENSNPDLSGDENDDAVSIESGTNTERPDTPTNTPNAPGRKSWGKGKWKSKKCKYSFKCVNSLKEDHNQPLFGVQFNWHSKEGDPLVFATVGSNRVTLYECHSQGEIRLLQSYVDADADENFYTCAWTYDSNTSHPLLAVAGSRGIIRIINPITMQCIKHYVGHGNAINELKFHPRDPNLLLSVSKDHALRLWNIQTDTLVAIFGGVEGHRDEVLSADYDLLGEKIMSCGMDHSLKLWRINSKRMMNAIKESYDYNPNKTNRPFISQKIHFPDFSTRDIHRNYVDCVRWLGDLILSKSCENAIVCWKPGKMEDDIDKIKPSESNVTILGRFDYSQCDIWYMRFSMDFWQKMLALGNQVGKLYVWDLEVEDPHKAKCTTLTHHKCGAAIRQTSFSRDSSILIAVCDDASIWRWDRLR
T2 sequence (Q15022 whole entry partner): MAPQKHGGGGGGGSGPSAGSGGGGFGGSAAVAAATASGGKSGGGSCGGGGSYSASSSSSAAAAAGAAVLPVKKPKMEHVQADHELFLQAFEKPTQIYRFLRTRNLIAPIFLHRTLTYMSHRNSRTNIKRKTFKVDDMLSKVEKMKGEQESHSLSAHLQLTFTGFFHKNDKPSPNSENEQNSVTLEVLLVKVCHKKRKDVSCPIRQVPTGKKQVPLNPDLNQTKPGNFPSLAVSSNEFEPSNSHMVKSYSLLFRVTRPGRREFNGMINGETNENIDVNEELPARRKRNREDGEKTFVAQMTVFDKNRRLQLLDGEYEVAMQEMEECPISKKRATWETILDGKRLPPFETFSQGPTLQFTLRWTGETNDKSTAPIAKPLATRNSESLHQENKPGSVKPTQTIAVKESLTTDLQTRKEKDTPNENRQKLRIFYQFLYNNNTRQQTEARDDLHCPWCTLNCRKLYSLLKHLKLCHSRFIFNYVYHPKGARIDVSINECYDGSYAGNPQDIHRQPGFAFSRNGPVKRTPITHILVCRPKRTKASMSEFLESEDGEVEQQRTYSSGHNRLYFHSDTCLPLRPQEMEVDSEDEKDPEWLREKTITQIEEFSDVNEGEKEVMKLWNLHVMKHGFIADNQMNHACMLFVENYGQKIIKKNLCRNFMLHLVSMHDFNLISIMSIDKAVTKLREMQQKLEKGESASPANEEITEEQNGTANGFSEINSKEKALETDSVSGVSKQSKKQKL
T2 sequence (Q09028 whole entry partner): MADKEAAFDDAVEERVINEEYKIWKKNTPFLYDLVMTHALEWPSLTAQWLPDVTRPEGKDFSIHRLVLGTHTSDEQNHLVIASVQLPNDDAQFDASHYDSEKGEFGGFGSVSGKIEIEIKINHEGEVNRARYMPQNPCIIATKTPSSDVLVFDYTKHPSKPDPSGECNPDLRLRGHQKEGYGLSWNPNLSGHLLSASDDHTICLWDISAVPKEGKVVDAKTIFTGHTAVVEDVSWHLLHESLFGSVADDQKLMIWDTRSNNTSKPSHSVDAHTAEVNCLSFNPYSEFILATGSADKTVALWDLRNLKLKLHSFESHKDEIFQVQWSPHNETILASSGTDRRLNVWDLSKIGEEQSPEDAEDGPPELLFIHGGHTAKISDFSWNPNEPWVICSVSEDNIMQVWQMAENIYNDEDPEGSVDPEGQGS
T1 sequence (Q15910 whole entry): as the sequence (Q15910 whole entry) above

B1: NXTAR: long non-coding RNA, 1476-nt transcript (SEQ ID NO: 58), expressed from retroviral or plasmid constructs (nucleic acid, listed as Homo sapiens)
chain: GGAAAAGGAAGGCTGCACAGAAGAACTGGCATTTGTGTTCTGCCTACAAAGCTGAAAAGGATTTCACCCAAATCAGGGAAGATCAGCCTTATGAGGTGGATATTATTGCCACAATAATTTTCCAGATGAAAAATGGAGGCCCAGAGATGTTAAGGAATTTGCCCAAGATCATGAAAAGACACTCTCCCCTATTGAGATGTCATGCAAGGATCAGTGCTGTGTGAAAATCCACATGAAGCAGGAAATGCAGGTGGTGGTGTCCAATCTGATTTCAAGATCTGAGAAGCTGTGCACTGCCTGAAAGGTATCTATTTAAGGTGTCACCAGACTCCTGCTCCACTCCTGCCCAAGGCCCAGCCCATCCAAGAGCAAAAGGCAAGTGGTGTTACAACCTTGGGATTTCCTGTATCTGCCCTCTTGCGGATAGCAGGACAGAGTCACAGCTGCATTAAATTCGCTTAAGACTTATTGAGACACTTCAACACTTCAACAACGACCTGTGAGATTAAGATTATTATTTTAAATTTACAGAAGGGGAAACTAAGAATTATAGACATGAAGTGACTCACCTATGACCACCTGGTGATAGAACCAGGACTAGAGCTCAGGTATGAAGATTTCTGGGGGAGTCCCTGAAAAAAAGGCTCCATATGGAATTACAATGTGGAAAAGGCCAAGGCCTCACCAACCCTTTTCTCTTCAACACCTGGATCCCTAAGTCCTTATTCGTAACCTCCTCTTTGGACAAGGTTTTGGTAGACAAAGCCAGAGCCTCTTGCACTGAGAAAGACAAATTCTCCTCTTGCAGTGAACCACAGGTAAATGCTCCAATAGAGAGTCCAAGCCAAACCTCCGGGTGTTATTCATGACCCAGGCAAGTCTGCTTTCTCATTCCCCCTATCTCTAGACCGTTTTCCATTTGGGCTTCCTTTTCTTCTTTTATCCTCAAAGAAACATGTTTCCTTCTAGTAGGTTTGGCTGCCACCACTAGGGTCCTGGCTACAACTGGCCCTCAGGTAACTCTCTCACCTCTGAGTTGGATAGTATCCTCTCTCGTCCCCATACACAAGTGTTTCTCTTCCCAGACACCTTCCTTACACAATTTCCCATTTCTTTCTCATCTCACCCTTGCTTTAATCAACATAGTTCTTTCCCCTGAGATTACTCTTCAGCCTTTCTTGTTGAAGCACTGCCCAGTGGTTCTCTTGGGATTTCCATTTCTCTCCCCTCAGCTCTCTTGGTACCAAATTCTGTAAGCTTCTCTGGTTTTTGGTTTCTCTTCCTTCTTTTCCTTCCAGGCAACATTTACTCAATCTAGGCTTGGATGATCAGGTACTTCTGCCAGCCTGCCCACTAGGGAACTCTGGGCTAGGAATATGTCTCAATGGCACCATTATATTTGGAAGGACGCTTCTGTATTTACACTGAACACACTAAAATACTAAACTTGAAGCCAAAATCCCCTCTCTGGCTCCA
Turning to B1, the “binding to purified EZH2” value in data set [1] is listed as “considerable binding”. Also, the AR-V7 expression entry in data set [2] was “significantly compromised”. Further, in data set [3] (22Rv1 cells, NXTAR construct 0.25-2 μg, 48 hrs), the AR protein result is “dose-dependent downregulation of AR”. In data set [3] (LNCaP and 22Rv1 cells, NXTAR plasmid 24, 48 and 72 hrs), the AR protein entry is on record as “decreased upon NXTAR expression in a time-dependent manner”. In addition, the “AR expression (protein)” value in data set [3] (VCaP and 22Rv1 cells, NXTAR expression) was “loss of AR expression”. For the same molecule, in data set [4] (setting [6]), the “AR mRNA level” value is listed as “significant decrease in AR mRNA level”, the KLK3 expression entry is listed as “significant loss of expression” and the TMPRSS2 expression result is reported as “significant loss of expression”. The “AR and KLK3/PSA levels post-DHT-treatment” value in data set [4] (LNCaP and 22Rv1 cells, DHT 10 nM overnight, NXTAR restoration) is given as “significantly compromised upon NXTAR restoration”. Besides, the AR levels entry in data set [4] (VCaP cells, NXTAR overexpression (rescue experiment)) is reported as “significant loss of AR levels”. Besides, in data set [5], the “EZH2 binding in RNA pull-down” value is on record as “EZH2 could bind to NXTAR RNA”.
